Assay results reported in article PMC4624055 (The Journal of allergy and clinical immunology, 2015).

B1: Asc s 13 (enzyme, Ascaris suum, UniProt P46436 1-206, looked up)
chain: MPQYKLTYFDIRGLGEGARLIFHQAGVKFEDNRLKREDWPALKPKTPFGQLPLLEVDGEVLAQSAAIYRYLGRQFGLAGKTPMEEAQVDSIFDQFKDFMAELRPCFRVLAGFEEGDKEKVLKEVAVPARDKHLPLLEKFLAKSGSEYMVGKSVTWADLVITDSLASWESLIPDFLSGHLQLKKYIEHVRELPNIKKWIAERPKTPY
B2: Bla g 5 (enzyme, Blattella germanica, UniProt O18598 1-204, looked up)
chain: MAPSYKLTYCPVKALGEPIRFLLSYGEKDFEDYRFQEGDWPNLKPSMPFGKTPVLEIDGKQTHQSVAISRYLGKQFGLSGKDDWENLEIDMIVDTISDFRAAIANYHYDADENSKQKKWDPLKKETIPYYTKKFDEVVKANGGYLAAGKLTWADFYFVAILDYLNHMAKEDLVANQPNLKALREKVLGLPAIKAWVAKRPPTDL

Molecular target: the molecule itself
Test: crystal structure

Protein | stoichiometry N
B1 | 2
B2 | 2
